Measurements published in IntAct's records for PubMed 20125124.

B1: Serine protease HTRA2, mitochondrial (Homo sapiens), O43464 (parent)
chain: MAAPRAGRGAGWSLRAWRALGGIRWGRRPRLTPDLRALLTSGTSDPRARVTYGTPSLWARLSVGVTEPRACLTSGTPGPRAQLTAVTPDTRTREASENSGTRSRAWLAVALGAGGAVLLLLWGGGRGPPAVLAAVPSPPPASPRSQYNFIADVVEKTAPAVVYIEILDRHPFLGREVPISNGSGFVVAADGLIVTNAHVVADRRRVRVRLLSGDTYEAVVTAVDPVADIATLRIQTKEPLPTLPLGRSADVRQGEFVVAMGSPFALQNTITSGIVSSAQRPARDLGLPQTNVEYIQTDAAIDFGNSGGPLVNLDGEVIGVNTMKVTAGISFAIPSDRLREFLHRGEKKNSSSGISGSQRRYIGVMMLTLSPSILAELQLREPSFPDVQHGVLIHKVILGSPAHRAGLRPGDVILAIGEQMVQNAEDVYEAVRTQSQLAVQIRRGRETLTLYVTPEVTE
partner: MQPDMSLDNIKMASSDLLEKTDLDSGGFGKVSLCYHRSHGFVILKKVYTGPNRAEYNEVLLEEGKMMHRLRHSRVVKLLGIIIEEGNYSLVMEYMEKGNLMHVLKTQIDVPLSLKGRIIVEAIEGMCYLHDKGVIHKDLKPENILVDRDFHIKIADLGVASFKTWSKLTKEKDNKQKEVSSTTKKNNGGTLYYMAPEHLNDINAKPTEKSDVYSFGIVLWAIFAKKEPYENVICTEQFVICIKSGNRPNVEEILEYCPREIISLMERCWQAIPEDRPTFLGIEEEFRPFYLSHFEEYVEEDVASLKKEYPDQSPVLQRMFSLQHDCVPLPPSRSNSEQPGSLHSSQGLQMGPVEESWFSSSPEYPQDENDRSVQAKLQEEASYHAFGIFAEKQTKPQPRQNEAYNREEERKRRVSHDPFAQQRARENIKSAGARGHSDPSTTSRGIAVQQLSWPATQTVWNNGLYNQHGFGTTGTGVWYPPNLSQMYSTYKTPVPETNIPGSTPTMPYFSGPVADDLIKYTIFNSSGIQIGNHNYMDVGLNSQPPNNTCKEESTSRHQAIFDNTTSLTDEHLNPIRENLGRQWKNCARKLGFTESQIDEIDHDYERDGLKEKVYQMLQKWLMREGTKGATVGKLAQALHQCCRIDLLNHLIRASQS

Variants of: B1
Conditions: with ripk1_mouse Ripk1, Q60855

Row | Variant | effect of a mutation on the interaction
1 | MAAPRAGRGAGWSLRAWRALGGIRWGRRPRLTPDLRALLTSGTSDPRARVTYGTPSLWARLSVGVTEPRACLTSGTPGPRAQLTAVTPDTRTREASENSGTRSRAWLAVALGAGGAVLLLLWGGGRGPPAVLAAVPSPPPASPRSQYNFIADVVEKTAPAVVYIEILDRHPFLGREVPISNGSGFVVAADGLIVTNAHVVADRRRVRVRLLSGDTYEAVVTAVDPVADIATLRIQTKEPLPTLPLGRSADVRQGEFVVAMGSPFALQNTITSGIVSSAQRPARDLGLPQTNVEYIQTDAAIDFGNAGGPLVNLDGEVIGVNTMKVTAGISFAIPSDRLREFLHRGEKKNSSSGISGSQRRYIGVMMLTLSPSILAELQLREPSFPDVQHGVLIHKVILGSPAHRAGLRPGDVILAIGEQMVQNAEDVYEAVRTQSQLAVQIRRGRETLTLYVTPEVTE [S306A] | disrupting interaction
